Changes are numbered by the printed parent chain. Numbers in names are those of the source. Where two headings read alike, the source gives them in different places.
Columns and labels:
PD-1 [1] = biological target: T1, PD-1 (UniProt Q15116 25-167, limits assumed); assay: ELISA, conjugate vs WT antibody
CD28 = CD28 (UniProt P10747 19-152, limits assumed); assay: ELISA, conjugate vs WT antibody
CTLA-4 [2] = biological target: T2, CTLA-4 (UniProt P16410 36-162, limits assumed); assay: ELISA, OD mutant/OD WT; B=70-90%
CTLA-4 [3] = biological target: T2, CTLA-4; assay: ELISA, OD mutant/OD WT; B=70-90%; remark: listed apart in the source
CTLA-4 [4] = biological target: T2, CTLA-4; assay: ELISA, OD mutant/OD WT; ↓=less than 70%
CTLA-4 [5] = biological target: T2, CTLA-4; assay: ELISA, conjugate vs WT antibody
CTLA-4 [6] = biological target: T3, CTLA-4 (UniProt P16410 36-162, limits assumed); assay: ELISA; S47 on the Cys
T3 construct: also called CTLA-4 protein

CTLA-4 [7] = biological target: T3, CTLA-4; assay: ELISA; R4-1 on the Cys
CTLA-4 [8] = biological target: T3, CTLA-4; assay: ELISA; R4-1 on the Cys; remark: listed apart in the source
[9] = biological target: T4, human CTLA-4 Fc fusion protein (R&D systems) (human, UniProt P16410 37-162); assay: ELISA, fold change of EC50; S47 on the Cys
T4 construct: bought

[10] = biological target: T4, human CTLA-4 Fc fusion protein (R&D …); assay: receptor blocking ELISA against biotinylated B7-1 or B7-2; TMEAbody (S47 conjugate)
PD-1 [11] = biological target: T1, PD-1; assay: ELISA, conjugate vs WT antibody; remark: listed apart in the source
PD-1 [12] = biological target: T1, PD-1; assay: ELISA, conjugate vs WT antibody; remark: listed apart in the source

T1 sequence (Q15116 25-167 limits assumed): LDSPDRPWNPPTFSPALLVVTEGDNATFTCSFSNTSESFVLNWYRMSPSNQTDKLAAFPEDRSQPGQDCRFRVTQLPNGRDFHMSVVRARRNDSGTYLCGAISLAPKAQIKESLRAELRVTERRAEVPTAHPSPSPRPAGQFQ
T4 sequence (P16410 37-162 limits assumed): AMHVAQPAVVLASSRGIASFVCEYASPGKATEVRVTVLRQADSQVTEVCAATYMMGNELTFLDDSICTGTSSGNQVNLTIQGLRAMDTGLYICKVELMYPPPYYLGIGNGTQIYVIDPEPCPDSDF

B1: anti-PD-1 antibody 2 heavy chain K57C-R4-7 (antibody, human IgG4 S228P, kappa, V domains shown)
VH: QVQLVESGGGVVQPGRSLRLDCKASGITFSNSGMHWVRQAPGKGLEWVAVIWYDGSCRYYADSVKGRFTISRDNSKNTLFLQMNSLRAEDTAVYYCATNDDYWGQGTLVTVSS
VL: EIVLTQSPATLSLSPGERATLSCRASQSVSSYLAWYQQKPGQAPRLLIYDASNRATGIPARFSGSGSGTDFTLTISSLEPEDFAVYYCQQSSNWPRTFGQGTKVEIKR
modifications: R4-7 on Cys 57
For B1, the “binding activity (% of WT)” value (PD-1 [1]) was 89.7%.

B2: anti-PD-1 antibody 2 heavy chain K65C-R4-7 (antibody, human IgG4 S228P, kappa, V domains shown)
VH: B1 VH with C57K, K65C
VL: B1 VL
modifications: R4-7 on Cys 65
With B2 the “binding activity (% of WT)” value (PD-1 [1]) was 92.1%.

B3: anti-PD-1 antibody 2 heavy chain Y53C-R4-4 (antibody, human IgG4 S228P, kappa, V domains shown)
VH: B1 VH with Y53C, C57K
VL: B1 VL
modifications: R4-4 on Cys 53
With B3 the “binding activity (% of WT)” value (PD-1 [1]) was 91.6%.

B4: anti-PD-1 antibody 2 heavy chain S32C-R4-1 (antibody, human IgG4 S228P, kappa, V domains shown)
VH: B1 VH with S32C, C57K
VL: B1 VL
modifications: R4-1 on Cys 32
For B4, the “binding activity (% of WT)” value (PD-1 [1]) was 86.8%.

B5: anti-PD-1 antibody 2 heavy chain S30C-R4-1 (antibody, human IgG4 S228P, kappa, V domains shown)
VH: B1 VH with S30C, C57K
VL: B1 VL
modifications: R4-1 on Cys 30
B5 was tested, and the “binding activity (% of WT)” value (PD-1 [1]) was 107%.

B6: anti-CD28 antibody light chain G99C-R4-1 (antibody, human IgG4, kappa, V domains shown)
VH: QVQLVQSGAEVKKPGASVKVSCKASGYTFTSYYIHWVRQAPGQGLEWIGCIYPGNVNTNYNEKFKDRATLTVDTSISTAYMELSRLRSDDTAVYFCTRSHYGLDWNFDVWGQGTTVTVSS
VL: not shown
modifications: R4-1 on Cys 99
B6 was tested, and the “binding activity (% of WT)” value (CD28) was 96.6%.

B7: anti-CD28 antibody light chain T93C-R4-1 (antibody, human IgG4, kappa, V domains shown)
VH: B6 VH
VL: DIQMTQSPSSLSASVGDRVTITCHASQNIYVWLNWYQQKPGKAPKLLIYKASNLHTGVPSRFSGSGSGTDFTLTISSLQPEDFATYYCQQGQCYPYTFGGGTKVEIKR
modifications: R4-1 on Cys 93
For B7, the “binding activity (% of WT)” value (CD28) was 87%.

B8: anti-CTLA-4 antibody heavy chain D54C (antibody, human IgG1, kappa, V domains shown)
VH: QVQLVESGGGVVQPGRSLRLSCAASGFTFSSYTMHWVRQAPGKGLEWVTFISYCGNNKYYADSVKGRFTISRDNSKNTLYLQMNSLRAEDTAIYYCARTGWLGPFDYWGQGTLVTVSS
VL: not shown
B8 was tested, and the “binding activity (OD after mutation/OD wild type)” value (CTLA-4 [2]) was 70 to 90%.

B9: anti-CTLA-4 antibody heavy chain D62C (antibody, human IgG1, kappa, V domains shown)
VH: B8 VH with C54D, D62C
VL: not shown
B9 was tested, and the “binding activity (OD after mutation/OD wild type)” value (CTLA-4 [2]) was 70 to 90%.

B10: anti-CTLA-4 antibody heavy chain Y32C (antibody, human IgG1, kappa, V domains shown)
VH: B8 VH with Y32C, C54D
VL: not shown
For B10, the “binding activity (OD after mutation/OD wild type)” value (CTLA-4 [2]) was 70 to 90%.

B11: anti-CTLA-4 antibody heavy chain I51C (antibody, human IgG1, kappa, V domains shown)
VH: B8 VH with I51C, C54D
VL: not shown
In the case of B11, the “binding activity (OD after mutation/OD wild type)” value (CTLA-4 [2]) is reported as 70 to 90%.

B12: anti-CTLA-4 antibody light chain T98C (antibody, human IgG1, kappa, V domains shown)
VH: B8 VH with C54D
VL: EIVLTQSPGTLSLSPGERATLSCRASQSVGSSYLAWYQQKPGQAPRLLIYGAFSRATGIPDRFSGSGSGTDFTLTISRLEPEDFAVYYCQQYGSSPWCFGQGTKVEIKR
In the case of B12, the “binding activity (OD after mutation/OD wild type)” value (CTLA-4 [3]) is reported as 70 to 90%.

B13: anti-CTLA-4 antibody light chain A52C (antibody, human IgG1, kappa, V domains shown)
VH: B8 VH with C54D
VL: not shown
For B13, the “binding activity vs wild type” value (CTLA-4 [4]) was less than 70%.

B14: anti-CTLA-4 antibody light chain A56C (antibody, human IgG1, kappa, V domains shown)
VH: B8 VH with C54D
VL: not shown
With B14 the “binding activity (OD after mutation/OD wild type)” value (CTLA-4 [3]) was 70 to 90%.

B15: anti-CTLA-4 antibody heavy chain Y107C (antibody, human IgG1, kappa, V domains shown)
VH: B8 VH with C54D, Y107C
VL: not shown
With B15 the “binding activity (OD after mutation/OD wild type)” value (CTLA-4 [2]) was 70 to 90%.

B16: anti-CTLA-4 antibody light chain Y33C (antibody, human IgG1, kappa, V domains shown)
VH: B8 VH with C54D
VL: not shown
With B16 the “binding activity vs wild type” value (CTLA-4 [4]) was less than 70%.

B17: anti-CTLA-4 antibody light chain Y92C (antibody, human IgG1, kappa, V domains shown)
VH: B8 VH with C54D
VL: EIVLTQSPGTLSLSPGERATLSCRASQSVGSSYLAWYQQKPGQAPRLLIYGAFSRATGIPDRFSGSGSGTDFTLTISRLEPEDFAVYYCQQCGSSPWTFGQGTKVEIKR
In the case of B17, the “binding activity vs wild type” value (CTLA-4 [4]) is reported as less than 70%.

B18: anti-CTLA-4 antibody heavy chain S31C-R4-1 (antibody, human IgG1, kappa, V domains shown)
VH: B8 VH with S31C, C54D
VL: not shown
modifications: R4-1 on Cys 31
With B18 the “binding activity (% of WT)” value (CTLA-4 [5]) was 110%.

B19: anti-CTLA-4 antibody heavy chain Y59C-R4-4 (antibody, human IgG1, kappa, V domains shown)
VH: B8 VH with C54D, Y59C
VL: not shown
modifications: R4-4 on Cys 59
For B19, the “binding activity (% of WT)” value (CTLA-4 [5]) was 89.1%.

B20: Ipi-se009 (Ipilimumab light chain Ser54Cys, Kabat L53) (antibody, human IgG1, kappa, V domains shown)
VH: B8 VH with C54D
VL: not shown
modifications: Cys at 54 (Kabat L53) carries the group named in the row
In the case of B20, the “Activity after S47 (40 kD) blocking” value (CTLA-4 [6]) is reported as 5%, the Binding activity (CTLA-4 [7]) is reported as 98% and the Binding activity (CTLA-4 [8]) is reported as 98%. For the same binder, the “Blocking efficiency after conjugation with S47” value [9] was 22 fold and the “Blocking efficiency (RBA), fold change of IC50” value [10] was 18 fold.

B21: anti-CTLA-4 antibody heavy chain K58C-R4-7 (antibody, human IgG1, kappa, V domains shown)
VH: B8 VH with C54D, K58C
VL: not shown
modifications: R4-7 on Cys 58
For B21, the “binding activity (% of WT)” value (CTLA-4 [5]) was 87.6%.

B22: anti-CTLA-4 antibody light chain A35C (antibody, human IgG1, kappa, V domains shown)
VH: B8 VH with C54D
VL: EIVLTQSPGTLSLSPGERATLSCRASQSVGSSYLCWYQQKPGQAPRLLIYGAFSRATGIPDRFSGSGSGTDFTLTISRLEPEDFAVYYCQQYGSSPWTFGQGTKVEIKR
With B22 the “binding activity (OD after mutation/OD wild type)” value (CTLA-4 [3]) was 70 to 90%.

B23: anti-CTLA-4 antibody heavy chain K65C-R4-7 (antibody, human IgG1, kappa, V domains shown)
VH: B8 VH with C54D, K65C
VL: not shown
modifications: R4-7 on Cys 65
For B23, the “binding activity (% of WT)” value (CTLA-4 [5]) was 96.2%.

B24: anti-CTLA-4 antibody heavy chain S30C-R4-1 (antibody, human IgG1, kappa, V domains shown)
VH: B8 VH with S30C, C54D
VL: not shown
modifications: R4-1 on Cys 30
With B24 the “binding activity (% of WT)” value (CTLA-4 [5]) was 93.4%.

B25: anti-CTLA-4 antibody light chain L34C (antibody, human IgG1, kappa, V domains shown)
VH: B8 VH with C54D
VL: not shown
B25 was tested, and the “binding activity (OD after mutation/OD wild type)” value (CTLA-4 [3]) was 70 to 90%.

B26: anti-CTLA-4 antibody heavy chain D106C-R4-3 (antibody, human IgG1, kappa, V domains shown)
VH: B8 VH with C54D, D106C
VL: not shown
modifications: R4-3 on Cys 106
With B26 the “binding activity (% of WT)” value (CTLA-4 [5]) was 87.6%.

B27: anti-PD-1 antibody 1 heavy chain K63C-R4-7 (antibody, human IgG4 S228P, kappa, V domains shown)
VH: QVQLVQSGVEVKKPGASVKVSCKASGYTFTNYYMYWVRQAPGQGLEWMGGINPSNGGTNFNECFKNRVTLTTDSSTTTAYMELKSLQFDDTAVYYCARRDYRFDMGFDYWGQGTTVTVSS
VL: EIVLTQSPATLSLSPGERATLSCRASKGVSTSGYSYLHWYQQKPGQAPRLLIYLASYLESGVPARFSGSGSGTDFTLTISSLEPEDFAVYYCQHSRDLPLTFGGGTKVEIKR
modifications: R4-7 on Cys 63
With B27 the “binding activity (% of WT)” value (PD-1 [11]) was 95.2%.

B28: anti-PD-1 antibody 1 light chain G28C-R4-5 (antibody, human IgG4 S228P, kappa, V domains shown)
VH: B27 VH with C63K
VL: B27 VL with G28C
modifications: R4-5 on Cys 28
With B28 the “binding activity (% of WT)” value (PD-1 [12]) was 108%.

B29: anti-PD-1 antibody 1 light chain S60C-R4-1 (antibody, human IgG4 S228P, kappa, V domains shown)
VH: B27 VH with C63K
VL: B27 VL with S60C
modifications: R4-1 on Cys 60
In the case of B29, the “binding activity (% of WT)” value (PD-1 [12]) is reported as 89.4%.

B30: anti-PD-1 antibody 1 light chain S35C-R4-1 (antibody, human IgG4 S228P, kappa, V domains shown)
VH: B27 VH with C63K
VL: B27 VL with S35C
modifications: R4-1 on Cys 35
In the case of B30, the “binding activity (% of WT)” value (PD-1 [12]) is reported as 88.3%.

B31: anti-PD-1 antibody 1 heavy chain T58C-R4-1 (antibody, human IgG4 S228P, kappa, V domains shown)
VH: B27 VH with T58C, C63K
VL: B27 VL
modifications: R4-1 on Cys 58
In the case of B31, the “binding activity (% of WT)” value (PD-1 [11]) is reported as 93.9%.

B32: anti-PD-1 antibody 1 light chain T31C-R4-1 (antibody, human IgG4 S228P, kappa, V domains shown)
VH: B27 VH with C63K
VL: B27 VL with T31C
modifications: R4-1 on Cys 31
With B32 the “binding activity (% of WT)” value (PD-1 [12]) was 84.4%.

B33: anti-PD-1 antibody 1 heavy chain S54C-R4-1 (antibody, human IgG4 S228P, kappa, V domains shown)
VH: B27 VH with S54C, C63K
VL: B27 VL
modifications: R4-1 on Cys 54
B33 was tested, and the “binding activity (% of WT)” value (PD-1 [11]) was 104%.

B34: anti-PD-1 antibody 1 light chain S30C-R4-1 (antibody, human IgG4 S228P, kappa, V domains shown)
VH: B27 VH with C63K
VL: B27 VL with S30C
modifications: R4-1 on Cys 30
B34 was tested, and the “binding activity (% of WT)” value (PD-1 [12]) was 86.9%.

B35: anti-PD-1 antibody 1 heavy chain T30C-R4-1 (antibody, human IgG4 S228P, kappa, V domains shown)
VH: B27 VH with T30C, C63K
VL: B27 VL
modifications: R4-1 on Cys 30
For B35, the “binding activity (% of WT)” value (PD-1 [11]) was 91.2%.

Reference: patent publication US20230158141A1 (YAFEI SHANGHAI BIOLOG MEDICINE SCIENCE AND TECHNOLOGY, published 2023)
